Source: patent publication US20220204609A1

Experiments:
[1] = target: Claudin18.2 protein (Genscript Biotech) (UniProt P56856); experiment: ELISA, plate coated with Claudin18.2 antigen at 0.05 µg/mL, antibody at 1 µg/mL
[2] = target: Claudin18.2 on cells (human) (UniProt P56856); experiment: flow cytometry on 293T-Claudin18.2 cells, antibody at 3 µg/mL
[3] = target: Claudin18.2 on cells (human) (UniProt P56856); experiment: cell-based or functional assay
[4] = target: Claudin18.1 on cells (human) (UniProt P56856); experiment: flow cytometry on 293T-Claudin18.1 cells, antibody at 3 µg/mL
[5] = target: Claudin18.2 on cells (human) (UniProt P56856); experiment: flow cytometry on 293T-Claudin18.2 cells, antibody at 1.5 µg/mL
[6] = target: Claudin18.2 on cells (human) (UniProt P56856); experiment: flow cytometry on NUGC4 cells, antibody at 1.5 µg/mL
[7] = target: Claudin18.2 on cells (human) (UniProt P56856); experiment: flow cytometry on 293T-Claudin18.2 cells, antibody at 0.375 µg/mL
[8] = target: Claudin18.1 on cells (human) (UniProt P56856); experiment: flow cytometry on 293T-Claudin18.1 cells, antibody at 0.375 µg/mL
[9] = target: Claudin18.2 on cells (human) (UniProt P56856); experiment: flow cytometry on NUGC4 cells, antibody at 0.75 µg/mL
[10] = target: Claudin18.1 on cells (human) (UniProt P56856); experiment: flow cytometry on 293T-Claudin18.1 cells, antibody at 0.75 µg/mL
[11] = target: Claudin18.2 on cells (human) (UniProt P56856); experiment: flow cytometry on 293T-Claudin18.2 cells, antibody at 0.75 µg/mL
[12] = target: Claudin18.2 protein (Genscript Biotech) (UniProt P56856); experiment: ELISA, plate coated with Claudin18.2 antigen at 0.2 µg/mL, antibody at 1 µg/mL
[13] = target: Claudin18.2 on cells (human) (UniProt P56856); experiment: flow cytometry on NUGC4 cells, antibody at 3 µg/mL
[14] = target: Claudin18.2 protein (Genscript Biotech) (UniProt P56856); experiment: ELISA, plate coated with Claudin18.2 antigen at 0.0125 µg/mL, antibody at 1 µg/mL
[15] = target: Claudin18.1 on cells (human) (UniProt P56856); experiment: flow cytometry on 293T-Claudin18.1 cells, antibody at 1.5 µg/mL

B1: CLDMix-CA818-IgG1 (antibody, V domains shown)
VH: GAATAVGRRTVEASETLSLTCAVYGGSFSGYYWSWIRQPPGKGLEWIGEINHSGSTNYNPSLKSRVTISVDTSKNQFSLKLSSVTAADTAVYYCARGPYDILTGYYPYWYFDLWGRGTLVTVSS
VL: DIVMTQSPSTLSASVGDRVTITCRASQGIRNDLGWYQQKPGKAPKLLIYDASSLQSGVPSRFSGSGYGTDFTLTISSLQPEDFATYYCLQDYNYPWTFGQGTKLEIKR
Work on B1 yielded an OD450 [1] of 1.28, a mean fluorescence intensity [2] of 33300 and an ADCC inhibition rate, %, antibody 0.5 µg/mL, 293T-Claudin18.2 target cells, PBMC effectors, LDH [3] of 15%. The ADCC inhibition rate, %, antibody 5 µg/mL, 293T-Claudin18.2 target cells, PBMC effectors, LDH [3] was 25%, the ADCC inhibition rate, %, antibody 50 µg/mL, 293T-Claudin18.2 target cells, PBMC effectors, LDH [3] was 45% and the mean fluorescence intensity [4] was 34400. It also gave a mean fluorescence intensity [5] of 34200, a mean fluorescence intensity [6] of 20400 and a mean fluorescence intensity [7] of 9360. The mean fluorescence intensity [8] was 7960, the mean fluorescence intensity [9] was 15000 and the mean fluorescence intensity [10] was 15200. For the same binder, the mean fluorescence intensity [11] was 17300, the OD450 [12] was 3.19 and the mean fluorescence intensity [13] was 42600. The OD450 [14] was 0.492 and the mean fluorescence intensity [15] was 17900.

B2: CLDQ1-CA841-IgG1 (antibody, V domains shown)
VH: QVQLVQSGAEVKKPGSSVKVSCKASGGTFSSYAISWVRQAPGQGLEWMGRIIPILGIANYAQKFQGRVTVTADKSTSTAYMELSSLRSEDTAVYYCARERDNWDPYYYYYGMDVWGQGTTVTVSS
VL: DIQMTQSPSTLSASVGDRVTITCRASQSINSWLAWYQQKPGKAPKLLIYKASSLESGVPSRFSGSGSGTEFTLTISSLQPDDFATYYCQQYNSFPLTFGGGTKVEIKR
In the case of B2, the OD450 [1] is reported as 0.484, the OD450 [12] is reported as 2.38 and the OD450 [14] is reported as 0.165.
